B1: near full-length ubiquilin-prey clone (FIG. 2 III, construct H without GST), M37-S595 (other, not shown: large carriers)
chain: MKVTVKTPKEKEEFAVPENSSVQQFKEEISKRFKSHTDQLVLIFAGKILKDQDTLSQHGIHDGLTVHLVIKTQNRPQDHSAQQTNTAGTNVTTSSTPNSNSTSGSATSNPFGLGGLGGLAGLSSLGLNTTNFSELQSQMQRQLLSNPEMMVQIMENPFVQSMLSNPDLMRQLIMANPQMQQLIQRNPEISHMLNNPDIMRQTLELARNPAMMQEMMRNQDRALSNLESIPGGYNALRRMYTDIQEPMLSAAQEQFGGNPFASLVSNTSSGEGSQPSRTENRDPLPNPWAPQTSQSSSASSGTASTVGGTTGSTASGTSGQSTTAPNLVPGVGASMFNTPGMQSLLQQITENPQLMQNMLSAPYMRSMMQSLSQNPDLAAQMMLNNPLFAGNPQLQEQMRQQLPTFLQQMQNPDTLSAMSNPRAMQALLQIQQGLQTLATEAPGLIPGFTPGLGALGSTGGSSGTNGSNATPSENTSPTAGTTEPGHQQFIQQMLQALAGVNPQLQNPEVRFQQQLEQLSAMGFLNREANLQALIATGGDINAAIERLLGSQHHSSISVS
notes: also called near full-length clone (encoding residues 37-595); the longer ubiquilin clone
B2: ubiquilin-prey clone (FIG. 2 III, construct B without GST), Q378-S595 (other, not shown: large carriers)
chain: QSLLQQITENPQLMQNMLSAPYMRSMMQSLSQNPDLAAQMMLNNPLFAGNPQLQEQMRQQLPTFLQQMQNPDTLSAMSNPRAMQALLQIQQGLQTLATEAPGLIPGFTPGLGALGSTGGSSGTNGSNATPSENTSPTAGTTEPGHQQFIQQMLQALAGVNPQLQNPEVRFQQQLEQLSAMGFLNREANLQALIATGGDINAAIERLLGSQHHSSISVS
notes: also called partial ubiquilin clone (encoding the COOH-terminal 218 residues)

Target: T1, PS2-COOH terminus Y2H bait (PS2 COOH-terminal 39 amino acids, K410-I448) (human)
T1 construct: also called PS2-COOH-terminal bait; not shown: the LexA fusion partner of the bait and any linker
Test: Y2H β-galactosidase liquid culture assay (ONPG)
Method: The yeast two-hybrid (Y2H) procedure that utilizes the LexA/transactivation system was performed, as described previously (Stabler, et al. 1999). The PS2 COOH-terminal 39-amino acids (residues […]) (see FIG. 1a and FIG. b) were used as bait to screen a human fetal brain cDNA library. Out of 10⁷ primary yeast transformants, 50 clones were selected for further analysis based on growth in the absence of leucine and a substantial blue color change when grown on 5-bromo-4-chloro-3-indolyl-β-D-galactopyranoside (X-gal) plates. False positives were subsequently eliminated based on their interactions with negative-control baits, such as LexA alone, nuclear lamin B, and CENP-C centromere protein. Plasmid DNAs were isolated from clones that fulfilled the above requirements, and the DNA sequences of their inserts were determined and compared with the GenBank/EMBL/DDBJ databases using the BLAST search program. […] Interaction of ubiquilin proteins with various PS1 and PS2 baits were quantified in liquid culture assays by the enzymatic conversion of o-nitrophenyl-β-D-galactopyranoside (ONPG) to o-nitrophenol and D-galactose by β-galactosidase enzyme encoded by an Y2H reporter plasmid.
Interaction between ubiquilin and the presenilins was quantified in Y2H β-galactosidase liquid culture assays. […]

T1 sequence (chain, as listed by the source limits assumed): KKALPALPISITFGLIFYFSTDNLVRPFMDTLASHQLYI

| Binder | fold β-galactosidase activity compared with negative-control baits [fold] |
| --- | --- |
| B1 | > 55 |
| B2 | > 55 |
